# US20250353888A1 (ENANTIS S R O, published 2025)
# Residue numbers refer to the chain shown, from its start. In names and notes the source's numbering stands.
# B1: FGF10 single-point mutant V123I (ligand)
# chain: MGSSHHHHHHSSGLVPRGSHMLGQDMVSPEATNSSSSSFSSPSSAGRHVRSYNHLQGDVRWRKLFSFTKYFLKIEKNGKVSGTKKENCPYSILEITSVEIGVVAIKAINSNYYLAMNKKGKLYGSKEFNNDCKLKERIEENGYNTYASFNWQHNGRQMYVALNGKGAPRRGQKTRRKNTSAHFLPMVVHS
# B2: FGF10 single-point mutant N181D (ligand)
# chain: B1 chain with I105V, N163D
# B3: FGF10 single-point mutant Q175E (ligand)
# chain: B1 chain with I105V, Q157E
# Target: FGF receptor 2b (FGFR2b) naturally expressed on 4MBr-5 rhesus monkey bronchial epithelial cells (rhesus monkey)
# Experiment: cell-based or functional assay
row,Binder,"ED50, proliferation of lung epithelial 4MBr-5 cells (resazurin) [ng/mL]"
1,B1,0.4
2,B2,1.6
3,B3,0.2
